Laboratory results published in US20110165161A1, “ANTI-EPCAM ANTIBODIES THAT INDUCE APOPTOSIS OF CANCER CELLS AND METHODS USING SAME” (priority 2009, published 2011).

Key:
[1] = tested on: Gastric cancer NCI-N87 cells; assay: Antibody cytotoxicity assay (Annexin V + PI), NCI-N87; assay type: cell-based; settings: for Induction of cell death (in words): 1, 3 and 10 μg/ml, overnight; for Cytotoxic effect (Annexin V + PI staining, dead cells): 17-20 hr
Description: (§1) After a 17-20 hr incubation at 37° C., cells were stained with 0.3 μl of FITC-conjugated Annexin V (Strong Biotech Corp. Cat. No. AVK250) in 50 μl Annexin V binding buffer (Strong Biotech Corp. Cat. No. AVK250) at RT for 20 min. After wash, the cells were then stained with 0.3 μl of propidium iodide in 200 μl Annexin V binding buffer. Annexin V and Propidium Iodide were used as a joint indicator for cell death. The data were acquired with BD FACSCalibur based on an acquisition of 3,000-5,000 cells and analyzed with the Cell Quest software. The combined percentages of the Annexin V+/PI+, Annexin V+/PI− and Annexin V−/PI+populations were considered as dead cells.

[2] = tested on: Lung cancer NCI-H520 cells; assay: Antibody cytotoxicity assay (Annexin V + PI), NCI-H520; assay type: cell-based; settings: for Induction of cell death (in words): 1, 3 and 10 μg/ml, overnight; for Cytotoxic effect (Annexin V + PI staining, dead cells): 17-20 hr
Description: as §1

[3] = target: T1, human EpCAM (CHO/EpCAM cells) (Homo sapiens, UniProt P16422); assay: FACS binding of anti-EpCAM antibodies to CHO/EpCAM cells; settings: antibody 0.1 μg/ml; HPS at 300x dilution
T1 construct: full-length of human EpCAM (aa 1-314); expressed in transfected cells; host or cells: CHO (Chinese hamster ovary) cells
T1 sequence (P16422 24-314): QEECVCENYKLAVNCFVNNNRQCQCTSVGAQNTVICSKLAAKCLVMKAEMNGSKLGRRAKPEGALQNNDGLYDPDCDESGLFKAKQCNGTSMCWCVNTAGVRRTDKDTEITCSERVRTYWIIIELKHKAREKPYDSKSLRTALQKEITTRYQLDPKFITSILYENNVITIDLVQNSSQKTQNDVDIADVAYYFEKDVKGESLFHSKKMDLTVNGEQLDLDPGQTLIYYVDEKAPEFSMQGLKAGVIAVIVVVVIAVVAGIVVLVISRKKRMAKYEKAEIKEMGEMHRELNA
Description: The cDNAs encoding full-length of human EpCAM (aa 1-314) were amplified by PCR from the cDNA pool generated from T-47D cells and cloned into the modified pcDNA 3.1/Myc-His(+) A vector (Invitrogen), followed by transfecting into Chinese hamster ovary (CHO) cells at 80-90% confluence in 6-well culture dishes, using Lipofectamine 2000 (Invitrogen, Cat. No. 11668-500). Transfectants were selected in F12/10% FBS medium containing 600 ug/ml Hygromycin B (C.A. IN-10687-010). Transfected cells expressing hEpCAM were identified by flow cytometry with anti-EpCAM antibodies.
(§2) 1×10^5 CHO/EpCAM or CHO parental cells were seeded in each well of a v-bottomed 96-well plate and incubated with purified anti-EpCAM antibodies or mouse IgG control antibody 9E10 at concentration of 0.1 μg/ml. A 300× dilution of human cell hyper-immune serum (HPS 300×) was used as binding positive control for both cell lines here. After 1 hr incubation at 4° C., cells were washed twice with 200 μl FACS buffer (1×PBS containing 1% FBS), stained with 100 μl of 1 μg/ml goat-anti-mouse IgG-PE (Southern Biotech, Cat. No. 1032-09) in FACS buffer and then incubated at 4° C. for 30 min. Cells were washed thrice with FACS buffer and analyzed by flow cytometry (BD LSR, BD Life Sciences).

[4] = tested on: Prostate cancer LNCaP cells; assay: Antibody cytotoxicity assay (Annexin V + PI), LNCaP; assay type: cell-based; settings: for Induction of cell death (in words): 1, 3 and 10 μg/ml, overnight; for Cytotoxic effect (Annexin V + PI staining, dead cells): 17-20 hr
Description: as §1

[5] = tested on: Pharynx cancer FaDu cells; assay: Antibody cytotoxicity assay (Annexin V + PI), FaDu; assay type: cell-based; settings: for Induction of cell death (in words): 1, 3 and 10 μg/ml, overnight; for Cytotoxic effect (Annexin V + PI staining, dead cells): 17-20 hr
Description: as §1

[6] = tested on: Breast cancer T-47D cells; assay: Antibody cytotoxicity assay (Annexin V + PI), T-47D; assay type: cell-based; settings: for Induction of cell death (in words): 1, 3 and 10 μg/ml, overnight; for Cytotoxic effect (Annexin V + PI staining, dead cells): 17-20 hr
Description: as §1

[7] = tested on: Ovarian cancer NIH:OVCAR-3 cells; assay: Antibody cytotoxicity assay (Annexin V + PI), NIH:OVCAR-3; assay type: cell-based; settings: for Induction of cell death (in words): 1, 3 and 10 μg/ml, overnight; for Cytotoxic effect (Annexin V + PI staining, dead cells): 17-20 hr
Description: as §1

CHO parental cells = assay: FACS binding of anti-EpCAM antibodies to CHO parental cells; set-up: species or system Chinese hamster; settings: antibody 0.1 μg/ml; HPS at 300x dilution
Description: as §2

[8] = tested on: Colorectal cancer DLD-1 cells; assay: Antibody cytotoxicity assay (Annexin V + PI), DLD-1; assay type: cell-based; settings: for Induction of cell death (in words): 1, 3 and 10 μg/ml, overnight; for Cytotoxic effect (Annexin V + PI staining, dead cells): 17-20 hr
Description: as §1

[9] = tested on: NCI-H358 lung cancer cells; assay: Cell death in NCI-H358 lung cancer cells (Annexin V + PI); assay type: cell-based, human; settings: mAb 10 μg/ml, 17 hr; for % of Annexin V + PI staining (untreated background subtracted), Mean ± SEM: mean of 5 experiments
Description: 5×10^4 NCI-H358 cells were seeded to each well of a 96-well plate, and then 10 μg/ml of anti-EpCAM or control (9E10) mAbs diluted in the medium was added into the cells. After a 17-hr incubation at 37° C., the cells were stained with 0.3 μl of FITC-conjugated Annexin V (Strong Biotech Corp. Cat. No. AVK250) in 50 μl Annexin V binding buffer (Strong Biotech Corp. Cat. No. AVK250) at RT for 20 min. After wash, the cells were then stained with 0.3 μl of propidium iodide in 200 μl Annexin V binding buffer. Annexin V and Propidium Iodide were used as a joint indicator for measuring cell death. The data were acquired with BD FACSCalibur based on an acquisition of 3,000-5,000 cells and analyzed with the Cell Quest software. The combined percentages of the Annexin V+/PI+, Annexin V+/PI− and Annexin V−/PI+populations were considered as dead cells.

B1: 1F10: murine anti-human EpCAM monoclonal antibody (IgG1, λ1), hybridoma m338-1F10.3; VH SEQ ID NO:11, VL SEQ ID NO:13 (antibody, listed as Mus musculus, V domains shown)
VH: EVKLLESGGGLVQPGGSLKLSCAASGFDFSRYWMSWVRQAPGKGLEWIGEINPDSSTMNYTPSLKDKFIISRDNAKNTLYLQMSKVRSEDTALYYCARGAYAMDYWGQGTSVTVSS
VL: QAVVTQESALTTSPGETVTLTCRSSTGAVTTSNNANWVQEKPDHLFTGLIGATNNRAPGVPARFSGSLIGDKAALTITGAQTEDEAIYFCALWYINHWVFGGGTKLTVLG
Induction of cell death (in words) [1]: substantial cell death | Cytotoxic effect (Annexin V + PI staining, dead cells) ([1]; mAb 1.0 μg/ml): 57% | Cytotoxic effect (Annexin V + PI staining, dead cells) ([1]; mAb 3.0 μg/ml): 57% | Cytotoxic effect (Annexin V + PI staining, dead cells) ([1]; mAb 10 μg/ml): 57% | Induction of cell death (in words) [2]: substantial cell death | Cytotoxic effect (Annexin V + PI staining, dead cells) ([2]; mAb 1.0 μg/ml): 40% | Cytotoxic effect (Annexin V + PI staining, dead cells) ([2]; mAb 3.0 μg/ml): 46% | Cytotoxic effect (Annexin V + PI staining, dead cells) ([2]; mAb 10 μg/ml): 57% | Binding (FACS, Mean fluorescence intensity (MFI)) CHO/EpCAM [3]: 5634 | Induction of cell death (in words) [4]: substantial cell death | Cytotoxic effect (Annexin V + PI staining, dead cells) ([4]; mAb 1.0 μg/ml): 47% | Cytotoxic effect (Annexin V + PI staining, dead cells) ([4]; mAb 3.0 μg/ml): 53% | Cytotoxic effect (Annexin V + PI staining, dead cells) ([4]; mAb 10 μg/ml): 48% | Induction of cell death (in words) [5]: substantial cell death | Cytotoxic effect (Annexin V + PI staining, dead cells) ([5]; mAb 1.0 μg/ml): 44% | Cytotoxic effect (Annexin V + PI staining, dead cells) ([5]; mAb 3.0 μg/ml): 42% | Cytotoxic effect (Annexin V + PI staining, dead cells) ([5]; mAb 10 μg/ml): 45% | Induction of cell death (in words) [6]: substantial cell death | Cytotoxic effect (Annexin V + PI staining, dead cells) ([6]; mAb 1.0 μg/ml): 51% | Cytotoxic effect (Annexin V + PI staining, dead cells) ([6]; mAb 3.0 μg/ml): 50% | Cytotoxic effect (Annexin V + PI staining, dead cells) ([6]; mAb 10 μg/ml): 50% | Induction of cell death (in words) [7]: substantial cell death | Cytotoxic effect (Annexin V + PI staining, dead cells) ([7]; mAb 1.0 μg/ml): 53% | Cytotoxic effect (Annexin V + PI staining, dead cells) ([7]; mAb 3.0 μg/ml): 57% | Cytotoxic effect (Annexin V + PI staining, dead cells) ([7]; mAb 10 μg/ml): 59% | Binding (FACS, Mean fluorescence intensity (MFI)) CHO (CHO parental cells): 6 | Induction of cell death (in words) [8]: substantial cell death | Cytotoxic effect (Annexin V + PI staining, dead cells) ([8]; mAb 1.0 μg/ml): 65% | Cytotoxic effect (Annexin V + PI staining, dead cells) ([8]; mAb 3.0 μg/ml): 65% | Cytotoxic effect (Annexin V + PI staining, dead cells) ([8]; mAb 10 μg/ml): 61% | % of Annexin V + PI staining (untreated background subtracted) ([9]; Exp1): 32% | % of Annexin V + PI staining (untreated background subtracted) ([9]; Exp2): 30% | % of Annexin V + PI staining (untreated background subtracted) ([9]; Exp3): 40% | % of Annexin V + PI staining (untreated background subtracted) ([9]; Exp4): 39% | % of Annexin V + PI staining (untreated background subtracted) ([9]; Exp5): 37% | % of Annexin V + PI staining (untreated background subtracted), Mean ± SEM [9]: 35.6 ± 2.0%

B2: 1G10: murine anti-human EpCAM monoclonal antibody (IgG1, K), hybridoma m290-1G10; VH SEQ ID NO:7, VL SEQ ID NO:9 (antibody, listed as Mus musculus, V domains shown)
VH: QIQLVQSGPELKKPGETVKISCKASGYTFTNYGMNWVKQAPGKGFKWMGWINTYTGEPTYADDFKGRFAFSLETSASTAYLQINNLQNEDMATYFCARWGYDFDYWGQGTTLTVSS
VL: QIVLTQSPAIMSSSPGEKVTMTCSASSSISYMNWYQQKPGTSPKRWIYDTSKLASGVPARFSGSGSGTSYSLTISSMEAEDAATYYCHQRSSYPYTFGGGTKLEIKR
Induction of cell death (in words) [1]: substantial cell death | Cytotoxic effect (Annexin V + PI staining, dead cells) ([1]; mAb 1.0 μg/ml): 50% | Cytotoxic effect (Annexin V + PI staining, dead cells) ([1]; mAb 3.0 μg/ml): 60% | Cytotoxic effect (Annexin V + PI staining, dead cells) ([1]; mAb 10 μg/ml): 60% | Induction of cell death (in words) [2]: substantial cell death | Cytotoxic effect (Annexin V + PI staining, dead cells) ([2]; mAb 1.0 μg/ml): 32% | Cytotoxic effect (Annexin V + PI staining, dead cells) ([2]; mAb 3.0 μg/ml): 41% | Cytotoxic effect (Annexin V + PI staining, dead cells) ([2]; mAb 10 μg/ml): 55% | Binding (FACS, Mean fluorescence intensity (MFI)) CHO/EpCAM [3]: 6178 | Induction of cell death (in words) [4]: substantial cell death | Cytotoxic effect (Annexin V + PI staining, dead cells) ([4]; mAb 1.0 μg/ml): 42% | Cytotoxic effect (Annexin V + PI staining, dead cells) ([4]; mAb 3.0 μg/ml): 55% | Cytotoxic effect (Annexin V + PI staining, dead cells) ([4]; mAb 10 μg/ml): 45% | Induction of cell death (in words) [5]: substantial cell death | Cytotoxic effect (Annexin V + PI staining, dead cells) ([5]; mAb 1.0 μg/ml): 40% | Cytotoxic effect (Annexin V + PI staining, dead cells) ([5]; mAb 3.0 μg/ml): 50% | Cytotoxic effect (Annexin V + PI staining, dead cells) ([5]; mAb 10 μg/ml): 51% | Induction of cell death (in words) [6]: substantial cell death | Cytotoxic effect (Annexin V + PI staining, dead cells) ([6]; mAb 1.0 μg/ml): 45% | Cytotoxic effect (Annexin V + PI staining, dead cells) ([6]; mAb 3.0 μg/ml): 58% | Cytotoxic effect (Annexin V + PI staining, dead cells) ([6]; mAb 10 μg/ml): 64% | Induction of cell death (in words) [7]: substantial cell death | Cytotoxic effect (Annexin V + PI staining, dead cells) ([7]; mAb 1.0 μg/ml): 40% | Cytotoxic effect (Annexin V + PI staining, dead cells) ([7]; mAb 3.0 μg/ml): 50% | Cytotoxic effect (Annexin V + PI staining, dead cells) ([7]; mAb 10 μg/ml): 52% | Binding (FACS, Mean fluorescence intensity (MFI)) CHO (CHO parental cells): 5 | Induction of cell death (in words) [8]: substantial cell death | Cytotoxic effect (Annexin V + PI staining, dead cells) ([8]; mAb 1.0 μg/ml): 28% | Cytotoxic effect (Annexin V + PI staining, dead cells) ([8]; mAb 3.0 μg/ml): 40% | Cytotoxic effect (Annexin V + PI staining, dead cells) ([8]; mAb 10 μg/ml): 60% | % of Annexin V + PI staining (untreated background subtracted) ([9]; Exp1): 46% | % of Annexin V + PI staining (untreated background subtracted) ([9]; Exp2): 42% | % of Annexin V + PI staining (untreated background subtracted) ([9]; Exp3): 48% | % of Annexin V + PI staining (untreated background subtracted) ([9]; Exp4): 47% | % of Annexin V + PI staining (untreated background subtracted) ([9]; Exp5): 42% | % of Annexin V + PI staining (untreated background subtracted), Mean ± SEM [9]: 45.0 ± 1.3%
